Results from the supplement of paper PMC10724198.
± gives the standard deviation of the averaged measurements.

Assays:
Saccharomyces cerevisiae [1] = test: protein stability index of tFT-peptide fusion (C-terminal peptide) (PSI (0-1 scale)); higher = more stable (slower turnover); conditions: genetic background: wild type; temperature: 30 C
Saccharomyces cerevisiae [2] = test: as above
Procedure: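 MPS profiling in S. cerevisiae of the tFT-X12 degron library: putative degron peptides plus stable controls, 12 aa, fused to the C-terminus of a sfGFP-mCherry timer. Cells are FACS-sorted into 8 mCherry/sfGFP bins and deep-sequenced. PSI runs from 0 (unstable) to 1 (stable). Backgrounds are wild type, das1Δ and doa10Δ at 30 °C, and wild type, das1Δ, cdc34-1 and cdc53-1 at 37 °C; 2-3 technical replicates each.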

[3] = genetic background: cdc34-1, temperature: 37 C
[4] = genetic background: cdc53-1, temperature: 37 C
[5] = genetic background: das1 deletion, temperature: 30 C
[6] = genetic background: das1 deletion, temperature: 37 C
[7] = genetic background: doa10 deletion, temperature: 30 C
[8] = genetic background: wild type, temperature: 30 C
[9] = genetic background: wild type, temperature: 37 C
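Also: PSI is a weighted mean of sequencing reads over stability bins, variants kept only with over 10 reads, mCherry proximal and sfGFP distal, peptide attached via GGGS linker.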

| Sequence | protein stability index (Saccharomyces cerevisiae [1]) | protein stability index (Saccharomyces cerevisiae [2]; [3]) | protein stability index (Saccharomyces cerevisiae [2]; [4]) | protein stability index (Saccharomyces cerevisiae [2]; [5]) | protein stability index (Saccharomyces cerevisiae [2]; [6]) | protein stability index (Saccharomyces cerevisiae [2]; [7]) | protein stability index (Saccharomyces cerevisiae [2]; [8]) | protein stability index (Saccharomyces cerevisiae [2]; [9]) |
| --- | --- | --- | --- | --- | --- | --- | --- | --- |
| KRKKHKRKLVIC | 0.265 ± 0.043 | 0.611 ± 0.03 | 0.674 ± 0.025 | 0.612 ± 0.012 | 0.732 ± 0.012 | 0.14 ± 0.027 | 0.154 ± 0.045 | 0.148 ± 0.05 |
| WVVVARIFSVFF | 0.515 ± 0.12 | 0.484 ± 0.014 | 0.561 ± 0.02 | 0.445 ± 0.0061 | 0.57 ± 0.0013 | 0.308 ± 0.011 | 0.35 ± 0.018 | 0.469 ± 0.038 |
| GGGEGVVWVRLG | 0.272 ± 0.018 | 0.537 ± 0.054 | 0.72 ± 0.011 | 0.637 ± 0.0046 | 0.737 ± 0.009 | 0.116 ± 0.012 | 0.131 ± 0.0021 | 0.19 ± 0.01 |
| FGVVRVSIPVGV | 0.368 ± 0.012 | 0.211 ± 0.024 | 0.203 ± 0.02 | 0.227 ± 0.038 | 0.3584 ± 0.0023 | 0.184 ± 0.005 | 0.233 ± 0.024 | 0.316 ± 0.007 |
| AGLLVLISWRLF | 0.217 ± 0.036 | 0.0795 ± 0.014 | 0.213 ± 0.036 | 0.171 ± 0.029 | 0.337 ± 0.0065 | 0.124 ± 0.013 | 0.141 ± 0.019 | 0.223 ± 0.022 |
| GLSVFFFVGFIF | 0.418 ± 0.047 | 0.38 ± 0.091 | 0.452 ± 0.033 | 0.339 ± 0.022 | 0.526 ± 0.021 | 0.306 ± 0.017 | 0.322 ± 0.02 | 0.521 ± 0.031 |
| FLIFVVIGGVGL | 0.2837 ± 0.0028 | 0.259 ± 0.0043 | 0.395 ± 0.016 | 0.281 ± 0.027 | 0.466 ± 0.013 | 0.2268 ± 0.0012 | 0.276 ± 0.023 | 0.435 ± 0.057 |
| VVRVSFSFCLSC | 0.373 ± 0.015 | 0.476 ± 0.023 | 0.498 ± 0.045 | 0.48 ± 0.029 | 0.459 ± 0.021 | 0.408 ± 0.026 | 0.388 ± 0.029 | 0.425 ± 0.024 |
| KLVFLLCLNKVF | 0.243 ± 0.037 | 0.51474 ± 0.00047 | 0.5887 ± 0.0014 | 0.439 ± 0.017 | 0.63 ± 0.0047 | 0.173 ± 0.018 | 0.199 ± 0.013 | 0.29 ± 0.0089 |
| ETVHVISLIAIG | 0.47 ± 0.037 | 0.428 ± 0.021 | 0.5059 ± 0.0027 | 0.33 ± 0.047 | 0.527 ± 0.017 | 0.279 ± 0.014 | 0.33 ± 0.021 | 0.49577 ± 7e-05 |
| GYTVYARRLIMC | 0.146 ± 0.015 | 0.215 ± 0.0094 | 0.265 ± 0.008 | 0.236 ± 0.024 | 0.382 ± 0.021 | 0.0746 ± 0.0026 | 0.0799 ± 0.0087 | 0.0893 ± 0.024 |
| FCMLCVVFLGSL | 0.505 ± 0.034 | 0.43 ± 0.067 | 0.532 ± 0.0092 | 0.39 ± 0.029 | 0.6206 ± 0.0047 | 0.358 ± 0.01 | 0.397 ± 0.015 | 0.596 ± 0.026 |
| FFSRSLGAGVAA | 0.644 ± 0.21 | 0.71 ± 0.037 | 0.747 ± 0.044 | 0.602 ± 0.028 | 0.715 ± 0.041 | 0.5962 ± 0.0036 | 0.604 ± 0.013 | 0.724 ± 0.033 |
| AYPAHQLLVSCL | 0.482 ± 0.028 | 0.509 ± 0.012 | 0.511 ± 0.021 | 0.405 ± 0.026 | 0.5435 ± 0.0014 | 0.351 ± 0.016 | 0.384 ± 0.038 | 0.5 ± 0.024 |
| LISRGNRALFCI | 0.314 ± 0.02 | 0.678 ± 0.044 | 0.739 ± 0.013 | 0.589 ± 0.017 | 0.755 ± 0.029 | 0.204 ± 0.015 | 0.224 ± 0.03 | 0.482 ± 0.016 |
